B1: Tuftelin-interacting protein 11 (Homo sapiens), Q9UBB9 (parent)
chain: MSLSHLYRDGEGRIDDDDDERENFEITDWDLQNEFNPNRQRHWQTKEEATYGVWAERDSDDERPSFGGKRARDYSAPVNFISAGLKKGAAEEAELEDSDDEEKPVKQDDFPKDFGPRKLKTGGNFKPSQKGFAGGTKSFMDFGSWERHTKGIGQKLLQKMGYVPGRGLGKNAQGIINPIEAKQRKGKGAVGAYGSERTTQSMQDFPVVDSEEEAEEEFQKELSQWRKDPSGSKKKPKYSYKTVEELKAKGRISKKLTAPQKELSQVKVIDMTGREQKVYYSYSQISHKHNVPDDGLPLQSQQLPQSGKEAKAPGFALPELEHNLQLLIDLTEQEIIQNDRQLQYERDMVVNLFHELEKMTEVLDHEERVISNLSKVLEMVEECERRMQPDCSNPLTLDECARIFETLQDKYYEEYRMSDRVDLAVAIVYPLMKEYFKEWDPLKDCTYGTEIISKWKSLLENDQLLSHGGQDLSADAFHRLIWEVWMPFVRNIVTQWQPRNCDPMVDFLDSWVHIIPVWILDNILDQLIFPKLQKEVENWNPLTDTVPIHSWIHPWLPLMQARLEPLYSPIRSKLSSALQKWHPSDSSAKLILQPWKDVFTPGSWEAFMVKNIVPKLGMCLGELVINPHQQHMDAFYWVIDWEGMISVSSLVGLLEKHFFPKWLQVLCSWLSNSPNYEEITKWYLGWKSMFSDQVLAHPSVKDKFNEALDIMNRAVSSNVGAYMQPGARENIAYLTHTERRKDFQYEAMQERREAENMAQRGIGVAASSVPMNFKDLIETKAEEHNIVFMPVIGKRHEGKQLYTFGRIVIYIDRGVVFVQGEKTWVPTSLQSLIDMAK
partner: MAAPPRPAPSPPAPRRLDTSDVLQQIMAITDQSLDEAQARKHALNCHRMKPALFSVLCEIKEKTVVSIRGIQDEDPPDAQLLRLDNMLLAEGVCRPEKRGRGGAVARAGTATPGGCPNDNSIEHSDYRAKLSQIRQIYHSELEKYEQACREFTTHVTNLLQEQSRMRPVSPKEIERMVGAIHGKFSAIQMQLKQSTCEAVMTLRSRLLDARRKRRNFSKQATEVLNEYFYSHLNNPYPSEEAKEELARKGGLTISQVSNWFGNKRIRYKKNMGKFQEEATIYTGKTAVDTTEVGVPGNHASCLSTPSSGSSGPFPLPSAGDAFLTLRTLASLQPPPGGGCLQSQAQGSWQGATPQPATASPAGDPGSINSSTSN
B2: Calcium-binding and coiled-coil domain-containing protein 2 (Homo sapiens), Q13137 (parent)
chain: MEETIKDPPTSAVLLDHCHFSQVIFNSVEKFYIPGGDVTCHYTFTQHFIPRRKDWIGIFRVGWKTTREYYTFMWVTLPIDLNNKSAKQQEVQFKAYYLPKDDEYYQFCYVDEDGVVRGASIPFQFRPENEEDILVVTTQGEVEEIEQHNKELCKENQELKDSCISLQKQNSDMQAELQKKQEELETLQSINKKLELKVKEQKDYWETELLQLKEQNQKMSSENEKMGIRVDQLQAQLSTQEKEMEKLVQGDQDKTEQLEQLKKENDHLFLSLTEQRKDQKKLEQTVEQMKQNETTAMKKQQELMDENFDLSKRLSENEIICNALQRQKERLEGENDLLKRENSRLLSYMGLDFNSLPYQVPTSDEGGARQNPGLAYGNPYSGIQESSSPSPLSIKKCPICKADDICDHTLEQQQMQPLCFNCPICDKIFPATEKQIFEDHVFCHSL
partner: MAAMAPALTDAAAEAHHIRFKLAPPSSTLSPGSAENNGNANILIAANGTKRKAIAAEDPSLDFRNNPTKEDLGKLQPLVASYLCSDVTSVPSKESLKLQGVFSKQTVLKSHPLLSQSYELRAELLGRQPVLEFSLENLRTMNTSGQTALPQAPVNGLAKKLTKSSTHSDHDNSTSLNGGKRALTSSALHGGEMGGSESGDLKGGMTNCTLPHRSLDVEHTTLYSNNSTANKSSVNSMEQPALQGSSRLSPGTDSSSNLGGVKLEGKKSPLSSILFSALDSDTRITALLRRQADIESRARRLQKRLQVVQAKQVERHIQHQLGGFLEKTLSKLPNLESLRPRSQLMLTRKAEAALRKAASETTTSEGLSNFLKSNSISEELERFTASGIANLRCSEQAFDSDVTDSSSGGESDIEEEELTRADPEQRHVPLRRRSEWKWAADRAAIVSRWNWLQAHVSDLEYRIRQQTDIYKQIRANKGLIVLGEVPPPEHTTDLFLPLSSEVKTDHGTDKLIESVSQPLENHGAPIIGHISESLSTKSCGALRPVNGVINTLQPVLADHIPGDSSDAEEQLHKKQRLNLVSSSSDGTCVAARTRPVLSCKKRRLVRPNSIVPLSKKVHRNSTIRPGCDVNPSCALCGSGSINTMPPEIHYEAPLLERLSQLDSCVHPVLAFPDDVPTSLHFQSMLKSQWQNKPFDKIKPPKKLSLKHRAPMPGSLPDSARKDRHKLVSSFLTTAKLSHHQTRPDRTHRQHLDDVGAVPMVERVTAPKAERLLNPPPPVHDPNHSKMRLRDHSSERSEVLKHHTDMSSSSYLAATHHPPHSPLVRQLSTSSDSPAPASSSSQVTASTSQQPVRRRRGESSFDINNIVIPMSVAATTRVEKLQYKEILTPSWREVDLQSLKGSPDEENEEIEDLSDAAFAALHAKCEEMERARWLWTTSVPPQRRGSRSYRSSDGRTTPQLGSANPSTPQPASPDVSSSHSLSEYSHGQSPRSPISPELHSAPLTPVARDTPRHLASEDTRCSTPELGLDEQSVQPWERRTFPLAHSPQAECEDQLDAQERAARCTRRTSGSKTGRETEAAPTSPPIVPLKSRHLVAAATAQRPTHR

Variants of: B1
Conditions: with pbx4_human PBX4, Q9BYU1

Row | effect of a mutation on the interaction | Variant
1 | with no effect | R8Q
2 | with no effect | S688L

Variants of: B2
Conditions: with kanl1_human KANSL1, Q7Z3B3

Row | effect of a mutation on the interaction | Variant
3 | with no effect | MEETIKDPPTSAVLLDHCHFSQVIFNSVEKFYIPGGDVTCHYTFTQHFIPRRKDWIGIFRVGWKTTREYYTFMWVTLPIDLNNKSAKQQEVQFKAYYLPKDDEYYQFCYVDEDGVVRGASIPFQFRPENEEDILVVTTQGEVEEIEQHNKELCKENQELKDSCISLQKQNSDMQAELQKKQEELETLQSINKKLELKVKEQKDYWETELLQLKEQNQKMSSENEKMGIRVDQLQAQLSTQEKEMEKLVQGDQDKTEQLEQLKKENDHLFLSLTEQRKDQKKLEQTVEQMKQNETTAMKKQQELMDENFDLSKRLSENEIICNALQRQKERLEGENDLLKRENSRLLSYMGLDFNSLPYQVPTSDEGGARQNPGLAYGNPYSGIQESSSASPLSIKKCPICKADDICDHTLEQQQMQPLCFNCPICDKIFPATEKQIFEDHVFCHSL [P389A]
4 | with no effect | MEETIKDPPTSAVLLDHCHFSQVIFNSVEKFYIPGGDVTCHYTFTQHFIPRRKDWIGIFRVGWKTTREYYTFMWVTLPIDLNNKSAKQQEVQFKAYYLPKDDEYYQFCYVDEDGVVRGASIPFQFRPENEEDILVVTTQGEVEEIEQHNKELCKENQELKDSCISLQKQNSDMQAELQKKQEELETLQSINKKLELKVKEQKDYWETELLQLKEQNQKMSSENEKMGIRVDQLQAQLSTQEKEMEKLVQGDQDKTEQLEQLKKENDHLFLSLAEQRKDQKKLEQTVEQMKQNETTAMKKQQELMDENFDLSKRLSENEIICNALQRQKERLEGENDLLKRENSRLLSYMGLDFNSLPYQVPTSDEGGARQNPGLAYGNPYSGIQESSSPSPLSIKKCPICKADDICDHTLEQQQMQPLCFNCPICDKIFPATEKQIFEDHVFCHSL [T273A]
